Laboratory results reported in PMC10872949.
Read-outs that look alike come from different tables or passages of the source.

Columns and labels:
Experiment in all cases: enzyme inhibition assay
[1] = target: Recombinant human cathepsin S (human) (UniProt P25774)
[2] = target: Recombinant human cathepsin L (human) (UniProt P07711)
[3] = target: Recombinant human cathepsin S (human) (UniProt P25774); remark: listed apart in the source

UniProt P25774, sequence (P25774 17-331): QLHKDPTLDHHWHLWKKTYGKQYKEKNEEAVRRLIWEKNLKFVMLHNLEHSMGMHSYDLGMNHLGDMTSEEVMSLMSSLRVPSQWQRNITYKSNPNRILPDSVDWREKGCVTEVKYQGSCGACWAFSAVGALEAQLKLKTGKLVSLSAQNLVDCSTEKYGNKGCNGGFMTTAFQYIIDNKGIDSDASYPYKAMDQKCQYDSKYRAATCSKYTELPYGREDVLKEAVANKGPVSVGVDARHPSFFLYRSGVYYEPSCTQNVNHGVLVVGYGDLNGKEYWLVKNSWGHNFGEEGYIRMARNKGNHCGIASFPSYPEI
UniProt P07711, sequence (P07711 18-333): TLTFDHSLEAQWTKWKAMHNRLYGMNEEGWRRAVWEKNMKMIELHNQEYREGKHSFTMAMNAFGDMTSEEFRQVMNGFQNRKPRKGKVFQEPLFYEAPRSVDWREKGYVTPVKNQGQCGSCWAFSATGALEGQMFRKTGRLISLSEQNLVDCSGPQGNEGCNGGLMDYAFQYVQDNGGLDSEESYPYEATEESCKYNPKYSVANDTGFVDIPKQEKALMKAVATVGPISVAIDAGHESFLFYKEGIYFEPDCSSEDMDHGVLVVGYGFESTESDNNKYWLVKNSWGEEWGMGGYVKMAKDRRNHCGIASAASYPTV

Row | Ki [1] [nM] | Ki [2] [nM] | Ki [3] [nM] | Substance
1 | 6.03 | 49.3 | – | Her-HC-CTSSpp IgG (from UniProt P25774 17-113) (antibody)
2 | 2.12 | 24.5 | 2.21 | Syn-LC-CTSSpp Fab (from UniProt P25774 17-113)
